Source: publication PMC8917853, “Synthesis and evaluation of ^99mTc-DOTA-ARA-290 as potential SPECT tracer for targeting cardiac ischemic region” (Iranian Journal of Basic Medical Sciences, 2021)
Where two headings read alike, the source gives them in different places. Non-standard residues stand in square brackets, D forms with d. Residues, ends and D or L forms follow the SMILES beside them. *: point of attachment. DOTA = O=C(O)CN1CCN(CC(=O)O)CCN(CC(=O)*)CCN(CC(=O)O)CC1; X1 = CN(C)c1ccc(/N=N/c2ccc(C(=O)*)cc2)cc1; pGlu = O=C1CC[C@@H](C(=O)O)N1

Legend:
[1] = sodium chloride 0.9%, ambient temperature, up to 6 hr, TLC, specific activity 18.5 MBq/nmol, mean n=3
Experimental: (§1) As an in vitro stability evaluation, radiolabeled peptides (specific activity= 18.5 MBq/nmol) were added to sodium chloride 0.9 % isotonic solution ([24]). After incubation at ambient temperature, samples were taken out at 0.06, 0.5, 1, 2, 4, and 6 hr. The radiochemical purity of the mixture was investigated by a TLC stripe. To survey biostability, 100 μl of the labeled compound was added to fresh human serum (1 ml) and incubated (37 °C, 5% CO2) at different time points (4, 30, 60, 120, 240, and 360 min). 100 μl aliquots of serum samples were then incubated with 100 μl of ethanol. Samples were centrifuged at 5000 rpm for 5 min at 37 °C and 20 µl supernatant was removed to assess the degradation of ^99mTc labeled peptide by TLC.

in vitro = settings: human, fresh human serum
Experimental: as §1

[2] = target: T1, EPOR-BcR receptor on H9c2 myocardial cells (Rattus norvegicus, UniProt Q07303+Q78ZF5); test: In vitro hypoxia test: binding to hypoxic vs normoxic H9c2 myocardial cells; format: cell-based; settings: for binding to hypoxic cells relative to normoxic cells: H9c2 cells, 250 pmol radiopeptide, 37 °C, triplicate
T1 construct: endogenous in cells; host or cells: H9c2 myocardial cells (hypoxic vs normoxic culture)
T1 sequence (Q07303 25-507): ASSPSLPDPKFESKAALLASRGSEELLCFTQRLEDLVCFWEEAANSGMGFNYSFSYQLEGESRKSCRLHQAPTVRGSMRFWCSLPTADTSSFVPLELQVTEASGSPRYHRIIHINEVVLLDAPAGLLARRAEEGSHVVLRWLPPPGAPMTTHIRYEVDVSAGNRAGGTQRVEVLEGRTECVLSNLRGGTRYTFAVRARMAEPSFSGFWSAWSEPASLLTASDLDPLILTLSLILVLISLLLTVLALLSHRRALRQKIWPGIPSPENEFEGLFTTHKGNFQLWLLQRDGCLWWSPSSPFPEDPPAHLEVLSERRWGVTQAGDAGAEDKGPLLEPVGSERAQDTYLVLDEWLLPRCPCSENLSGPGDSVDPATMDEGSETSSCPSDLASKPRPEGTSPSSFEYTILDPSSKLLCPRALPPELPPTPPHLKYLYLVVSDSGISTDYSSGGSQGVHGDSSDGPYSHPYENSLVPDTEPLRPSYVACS
T1 sequence (Q78ZF5 29-896): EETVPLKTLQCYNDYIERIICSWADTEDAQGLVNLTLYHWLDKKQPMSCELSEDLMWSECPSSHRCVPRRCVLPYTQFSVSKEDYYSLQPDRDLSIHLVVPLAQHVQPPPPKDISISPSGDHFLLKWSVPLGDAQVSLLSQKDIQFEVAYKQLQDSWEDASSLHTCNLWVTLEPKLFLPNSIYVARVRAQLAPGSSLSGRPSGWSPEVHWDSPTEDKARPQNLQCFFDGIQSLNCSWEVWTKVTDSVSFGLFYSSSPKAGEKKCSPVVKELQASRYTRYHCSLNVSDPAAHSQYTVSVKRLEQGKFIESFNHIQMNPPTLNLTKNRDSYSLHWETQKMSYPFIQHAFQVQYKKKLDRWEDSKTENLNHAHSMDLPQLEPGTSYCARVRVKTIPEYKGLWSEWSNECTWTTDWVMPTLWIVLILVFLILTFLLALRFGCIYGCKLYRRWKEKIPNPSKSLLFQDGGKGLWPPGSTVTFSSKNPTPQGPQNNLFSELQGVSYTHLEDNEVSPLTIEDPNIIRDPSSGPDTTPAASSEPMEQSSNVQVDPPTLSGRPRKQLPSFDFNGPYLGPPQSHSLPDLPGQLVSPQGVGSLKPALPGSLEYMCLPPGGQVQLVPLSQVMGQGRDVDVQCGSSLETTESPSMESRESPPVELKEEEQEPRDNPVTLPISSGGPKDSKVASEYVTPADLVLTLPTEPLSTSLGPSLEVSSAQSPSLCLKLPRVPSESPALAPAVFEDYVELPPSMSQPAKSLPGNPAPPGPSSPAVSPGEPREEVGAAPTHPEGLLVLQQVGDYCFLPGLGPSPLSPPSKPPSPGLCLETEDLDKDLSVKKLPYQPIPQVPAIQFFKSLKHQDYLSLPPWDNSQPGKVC
Experimental: H9c2 myocardial cells were separated into three groups. The normoxic control group (negative EPOR-BcR receptor) was cultured in a normoxic (20% O2) culture medium. Hypoxic group (positive EPOR-BcR receptor) was cultured in a different time interval (1-4 hr) hypoxic culture condition (5% CO2 and 2% O2) and blocking test (specific binding assay) in the hypoxic condition. […] The cells for triplicate were placed inside confocal plates (Costar) at a density of 1 × 10^5 per well, then treated with almost 250 pmol of ^99mTc-DOTA-(Lys-Dabcyl^6,Phe^7)-ARA-290 subject to 0.025 MBq at 37 °C. Incubation was disrupted with 1 ml of chilled PBS. Afterward, the cells were separated by […] to measure the cell-bound level of ^99mTc-DOTA-(Lys-Dabcyl^6,Phe^7)-ARA-290 by a scintillator. EPOR-BcR receptor blocking was done by using 50-fold extra of the unlabeled peptide in 30 min before the injection of the labeled peptide.

in vivo = test: in vivo
Experimental: To study ischemia-induced myocardial injuries, male Wistar rats weighing 200~250 gr were sorted into three groups of four (n=4): (1) normal group, (2) Ischemic group, and (3) sham group. The rats were anesthetized by intraperitoneal (IP) administration of 3 % pentobarbital sodium (60 mg/kg). Positive pressure mechanical ventilation was made by a Shinano respirator (SN-480–4) and an open-heart operation was done at the level of the left 4th–5th ribs. The rats received intramuscular injections of penicillin sodium (0.8 mg/g) to prevent infection. Myocardial ischemia was induced by a slipknot (4–0 silk suture) around the LAD about 2–3 mm near its origin. After 30-min ischemia, the slipknot was loosened to restore normal circulation for reperfusion ([28]). […] In the same group, heart surgery was performed without LAD artery occlusion.
The biodistribution of radiopeptide among tissues was measured by sacrifice of rats for each elected interval (30, 60, 180, and 360 min) post-injection. Various tissues, including heart, bone, kidneys, muscle, salivary glands, spleen, and intestines, were removed immediately and rinsed with saline solution to clean their residual blood. Moreover, blood samples for monitoring radioactivity were taken from the heart by a heparin-impregnated syringe after sacrificing. The percentage of injected activity per gram (%ID/g) for different organs was measured by dividing the activity of each organ per decayed total injected activity and mass of each organ. Moreover, in ischemic rats, 100 μg unlabeled peptide was co-injected with radiolabeled peptide to analyze the in vivo blocking test.

cardiac ischemic region = test: Planar SPECT scintigraphy in ischemic and normal rats; format: in vivo, rat; settings: 200 MBq
Experimental: 30 and 90 min post-injection of ^99mTc-DOTA-(Lys-Dabcyl^6,Phe^7)-ARA-290 (200 MBq) into ischemic and normal rats, planar images were captured by a dual-head SPECT system (E.cam, Siemens, Germany) that was arranged with low energy high-resolution collimators, a 128*128 matrix size, and a 20% energy window set at 140 keV ([29]).

[3] = cited from earlier work
Text: Myocardial infarction, the most prominent cardiovascular disease outcome (CVD), is the main reason for morbidity and death in the world ([1]). Immediate and precise diagnosis of cardiac hypoxia and ischemia is very critical and crucial for appropriate treatment and prevention of myocardial damage ([2]). Evaluation of cardiac ischemic biomarkers in blood plasma, including Creatine Kinase-MB, cardiac troponin, and lactate dehydrogenase (LDH) is valuable for diagnosis; however, their levels increase in blood after a delay of time ([3]).

[4] = metabolic stability; 41 (Yang et al.); cited from earlier work
Text: Myocardial SPECT imaging as a nuclear cardiological scan has been used in many procedures for ischemic heart diseases ([36]). In the mid-1970s, […]-201 (201TI) imaging has been used to ascertain regional myocardial perfusion models at rest, stress, and acute myocardial infarction, but because of the concerns about medical exposure to ionizing radiation and lower image quality, ^201Tl was substituted by ^99mTc-labeled perfusion agents (^99mTc-sestamibi and ^99mTc-tetrofosmin). However, these SPECT agents show poor pharmacokinetic features with reducing uptake with higher flows ([37], [38]) ...

[5] = male, Wistar, rat, blood, iv, 20 MBq, total radioactivity
[6] = male, Wistar, rat, bone, iv, 20 MBq, total radioactivity
[7] = male, Wistar, rat, heart, iv, 20 MBq, total radioactivity
[8] = male, Wistar, rat, intestines, iv, 20 MBq, total radioactivity
[9] = male, Wistar, rat, ischemic heart / lung, iv, 20 MBq, total radioactivity
[10] = male, Wistar, rat, ischemic heart, iv, 20 MBq, total radioactivity
[11] = male, Wistar, rat, kidneys, iv, 20 MBq, total radioactivity
[12] = male, Wistar, rat, liver, iv, 20 MBq, total radioactivity
[13] = male, Wistar, rat, lung, iv, 20 MBq, total radioactivity
[14] = male, Wistar, rat, muscle, iv, 20 MBq, total radioactivity
[15] = male, Wistar, rat, salivary gland and thyroid, iv, 20 MBq, total radioactivity
[16] = male, Wistar, rat, spleen, iv, 20 MBq, total radioactivity
[17] = male, Wistar, rat, stomach, iv, 20 MBq, total radioactivity

## CC(C)C[C@H](NC(=O)[C@H](Cc1ccccc1)NC(=O)[C@H](CCCCNC(=O)c1ccc(/N=N/c2ccc(N(C)C)cc2)cc1)NC(=O)[C@H](CCC(=O)O)NC(=O)[C@H](CC(C)C)NC(=O)[C@H](CCC(N)=O)NC(=O)[C@H](CCC(=O)O)NC(=O)[C@H](CCC(=O)O)NC(=O)CN1CCN(CC(=O)O)CCN(CC(=O)O)CCN(CC(=O)O)CC1)C(=O)N[C@@H](CC(N)=O)C(=O)N[C@@H](CO)C(=O)N[C@@H](CO)C(=O)O [99mTc-DOTA-(Lys-Dabcyl6,Phe7)-ARA-290, metal not drawn] ({DOTA}-EEQLEK(X1)FLNSS-OH; C-terminus assumed)
[1]
  saline stability of radiopeptide (radiochemical purity remaining): 95%
In vitro
  remaining at 4 h: 94%
  remaining at 6 h: 93%
[2]; hypoxia 2% O2 vs normoxia 20% O2, 1 hr
  binding to hypoxic cells relative to normoxic cells: 3 fold
[2]; hypoxia 2% O2 vs normoxia 20% O2, 4 hr
  binding to hypoxic cells relative to normoxic cells: ~5 fold
[2]; hypoxic H9c2 cells, 50 mol excess of unlabeled peptide 30 min before radiopeptide
  binding to hypoxic cells in blocking test: the same result was obtained for the normoxic cells
[2]; normoxic 20% O2, H9c2 cells
  binding affinity to H9c2 cells under normoxic situations: very low
In vivo; 60 min p.i., block with 100 μg unlabeled peptide, ischemic rats
  Isch heart/Th ratio: 1.04
In vivo; 180 min p.i., ischemic rats
  Isch heart/Lung ratio: 2.61
  Isch heart/Th ratio: 4.68
In vivo; 360 min p.i., ischemic rats
  Isch heart/Th ratio: 6.01
In vivo; [5]
  tissue uptake at 0.5 h: 1.52 ± 0.29 %ID/g
  tissue uptake at 1 h: 0.96 ± 0.16 %ID/g
  tissue uptake at 3 h: 0.44 ± 0.28 %ID/g
  tissue uptake at 6 h: 0.12 ± 0.87 %ID/g
In vivo; [6]
  tissue uptake at 0.5 h: 0.75 ± 0.41 %ID/g
  tissue uptake at 1 h: 0.53 ± 0.21 %ID/g
  tissue uptake at 3 h: 0.32 ± 0.21 %ID/g
  tissue uptake at 6 h: 0.16 ± 0.29 %ID/g
In vivo; [7]
  tissue uptake at 0.5 h: 0.62 ± 0.15 %ID/g
  tissue uptake at 1 h: 0.31 ± 0.18 %ID/g
  tissue uptake at 3 h: 0.21 ± 0.32 %ID/g
  tissue uptake at 6 h: 0.14 ± 0.23 %ID/g
In vivo; [8]
  tissue uptake at 0.5 h: 1.73 ± 0.1 %ID/g
  tissue uptake at 1 h: 3.22 ± 0.78 %ID/g
  tissue uptake at 3 h: 2.89 ± 0.08 %ID/g
  tissue uptake at 6 h: 2.35 ± 0.25 %ID/g
In vivo; [9]
  tissue to tissue ratio at 0.5 h: 3.65
  tissue to tissue ratio at 1 h: 4.31
  tissue to tissue ratio at 6 h: 3.37
In vivo; [10]
  tissue uptake at 0.5 h: 3.44 ± 0.32 %ID/g
  tissue uptake at 1 h: 3.28 ± 0.52 %ID/g
  tissue uptake at 3 h: 1.36 ± 0.44 %ID/g
  tissue uptake at 6 h: 1.08 ± 0.94 %ID/g
In vivo; [11]
  tissue uptake at 0.5 h: 10.6 ± 0.48 %ID/g
  tissue uptake at 1 h: 14.29 ± 0.01 %ID/g
  tissue uptake at 3 h: 8.58 ± 0.1 %ID/g
  tissue uptake at 6 h: 4.06 ± 0.43 %ID/g
In vivo; [12]
  tissue uptake at 0.5 h: 3.55 ± 0.21 %ID/g
  tissue uptake at 1 h: 4.28 ± 0.15 %ID/g
  tissue uptake at 3 h: 3.49 ± 0.09 %ID/g
  tissue uptake at 6 h: 2.08 ± 0.28 %ID/g
In vivo; [13]
  tissue uptake at 0.5 h: 0.94 ± 0.58 %ID/g
  tissue uptake at 1 h: 0.76 ± 0.77 %ID/g
  tissue uptake at 3 h: 0.52 ± 0.19 %ID/g
  tissue uptake at 6 h: 0.32 ± 0.22 %ID/g
In vivo; [14]
  tissue uptake at 0.5 h: 0.53 ± 0.42 %ID/g
  tissue uptake at 1 h: 0.42 ± 0.84 %ID/g
  tissue uptake at 3 h: 0.25 ± 0.87 %ID/g
  tissue uptake at 6 h: 0.17 ± 0.31 %ID/g
In vivo; [15]
  tissue uptake at 0.5 h: 0.79 ± 0.41 %ID/g
  tissue uptake at 1 h: 0.62 ± 0.15 %ID/g
  tissue uptake at 3 h: 0.29 ± 0.29 %ID/g
  tissue uptake at 6 h: 0.18 ± 0.81 %ID/g
In vivo; [16]
  tissue uptake at 0.5 h: 2.56 ± 0.21 %ID/g
  tissue uptake at 1 h: 2.31 ± 0.12 %ID/g
  tissue uptake at 3 h: 1.16 ± 0.22 %ID/g
  tissue uptake at 6 h: 0.44 ± 0.29 %ID/g
In vivo; [17]
  tissue uptake at 0.5 h: 0.88 ± 0.44 %ID/g
  tissue uptake at 1 h: 0.71 ± 0.31 %ID/g
  tissue uptake at 3 h: 0.54 ± 0.28 %ID/g
  tissue uptake at 6 h: 0.32 ± 0.19 %ID/g
Cardiac ischemic region; cardiac ischemic rats, planar images at 30 and 90 min post-injection
  scintigraphy: ischemic region uptake: considerable ischemic region uptake
Cardiac ischemic region; normal rat, 30 min post-injection
  scintigraphy: cardiac accumulation: not detectable

## [pGlu]EQLERALNSS-OH [ARA-290, 11 amino acid nonhematopoietic peptide derived from helix B of EPO]
[3]; in rabbits
  half-life: roughly 2 min
[3]; in rats
  half-life: roughly 2 min
[4]
  in vivo stability: 2 min
